# Results from the DeepSol protein solubility set.
# Experiment: soluble on expression in E. coli; label from the status in PepcDB or PDB records
row,Sequence,soluble on expression in E. coli
1,MGSDKIHHHHHHMLELKHNFIFEDQPVAWGCMGQGPALVLIHGTPFSSQVWRRIAPLLSSHWTVYYYDMVGYGQSHKSAGQQVSLGGQDRLLAALLKEWKLTRPDILCHDFGGATALRGYFLQGLRYASLTLFDAVAISPWGSPFVAHVRKHQDAFTGLPKYAHDALLSAYLQGAAYQPLSEEALNIYMSPWQGEVGQAAFYRQIAQMDQCYTDDIEPLLTELDCPVNMLWGEQDEWIPLEVGKRLAHRLGDAPLQIVKNAGHLVQEDAPEAIVQSMYSLLLKRAGTSSSR,not soluble
2,MQSYTNRICAVCGDTPAKIHYGVLACFGCKGFFRRAVKDGRNKYVCRFEKNCEVTKFERNACRYCRFRKCLLVGMNPDYVRPDREKSKKGKTVLSKKKSVSRSLSYRLADPSDWTSFLSPSSRKQLSEIGKLAETCSTSTNFDGIGNFSLKSLIADRSLARKTGDSEAMDCSNSPRQLNEQFLGIERIVQCVDYIDRFLVMLEEEHCRKFSVEDKSALISDTMIHLLLFESTSRFVAKGAPGLEDLKLSLAQLPICTTHLTQKIADVFETYLRKPPSIIEYSVLKAYIVLSAESTVLSNSLNESLSLARENLSELLFKVIKHSRNKTSISAANSLSTILHFVYESRNLASRIRQSQQPFFVRDSDPKIPFHKILTDIINPEVSDLLLTTANCRKLSTQMGSSLSSVPPVPPPSDTVPLFHFSPPSLSPCQISAPPPPQQQYTDYSQMPSTSSYPANSSPFQSPYRPNSLSSFPKIPLEMTKSIEEFLRPNGMTTDEMNKPLEKNWADGFRLTPVFNKDIVSQFFPELSNINQHHPF,not soluble
3,MKAMPIDDPIDGYVAELSRALHGPRRAKRDLIAEVRDGLIDAAEAYQAAGLDRPEAERRAVAEFGTVGEIAPGLQEELAAATGQRLGALLFLSAPRSPGT,not soluble
4,MNQVAPFYADHVGSILRTKGIKDAREKFQSGEITALELRKIENTEIKYIVEKQKEVGLKSITDGEFRRAWWHFDFLENLDGVEGYDAAGGIQFSKVQTKSHSVKITGPIDFTTHPFIEDFIFLKEAVGDNHVAKQTIPSPAMLHYRGDIEYQPYLDDAEKFANDLATAYQKAIQAFYDAGCRYLQLDDTSWSYLCSDEQREVVRQRGFDPETLQETYKNLINEAIKHKPADMVITMHICRGNFRSTWIAEGGYGPVAETLFGKLNIDGFFLEYDNERSGDFAPLKYVTRPDLKIVLGLITSKTGELEDEAAIKARIEEASEIVPLSQLRLSPQCGFASTEEGNILTEEEQWDKLRYVVRLANDIWGELEHHHHHH,soluble
5,MCRALQEQREASAAIAREILGDIKLNVTDGEFAVSIAQQEALESYVDLLEKQEQELIAELHRTVLRLSAKIAATRHLRNLAIREAGKQQGMRMAEDTTERGERQHEEA,not soluble
6,MDQKRLTHLRQLEAESIHIIREVAAEFANPVMLYSIGKDSSVMLHLARKAFYPGTLPFPLLHVDTGWKFREMYAFRDRTANAYGCELLVHKNPEGVAMGINPFVHGSAKHTDIMKTEGLKQALNKYGFDAAFGGARRDEEKSRAKERIYSFRDRFHRWDPKNQRPELWRNYNGQINKGESIRVFPLSNWTEQDIWQYIWLENIDIVPLYLAAERPVLERDGMLMMVDDDRIDLQPGEVIKKRMVRFRTLGCWPLTGAVESHAQTLPEIIEEMLVSTTSERQGRMIDRDQAGSMELKKRQGYF,not soluble
7,MIALFSVLIAFLTPQANAVISGELNCTTYNGTAFVYTPSATACSNAISDSSCAALYPASDPATGYPAPGNDVERPFACYTTATPTPAPVVPDMRSAALKNCARTCGLCCKTADFDCPNVQFPRLTCSTITNEQCRSSVWRTIIATDCPSACGFCNQGGCVDGVMDCANDLSICNSVGMQEFVNQYCQRTCNRCSSSTAATGTGGSCGGRYIADSSTACAAWKLNGFCTNTFYTAAQRRSYCATTCSLC,not soluble
8,MMTRESIDKRAGRRGPNLNIVLTCPECKVYPPKIVERFSEGDVVCALCGLVLSDKLVDTRSEWRTFSNDDHNGDDPSRVGEASNPLLDGNNLSTRIGKGETTDMRFTKELNKAQGKNVMDKKDNEVQAAFAKITMLCDAAELPKIVKDCAKEAYKLCHDEKTLKGKSMESIMAASILIGCRRAEVARTFKEIQSLIHVKTKEFGKTLNIMKNILRGKSEDGFLKIDTDNMSGAQNLTYIPRFCSHLGLPMQVTTSAEYTAKKCKEIKEIAGKSPITIAVVSIYLNILLFQIPITAAKVGQTLQVTEGTIKSGYKILYEHRDKLVDPQLIANGVVSLDNLPGVEKK,soluble
9,MPRTIWSGAISFGLVTVPIHVVSATEDHSVRFHQYHLEDMGRVRVRKYCELEDREVTQDEIGKGYELSKDTVIPVLDEELRELPLPTAKAIEIEAFVPLASIDPMGIGEGYYLQPDGQVAAKPYKLLRQALERSSKVAVAKYAWSGRERLGMLRVREEAIVLHAMRWPDEIRD,not soluble
10,YSSRRFEKKKIHFPSRRRRFVDYLINAQRSEKLELNSQQQLGNRHSGSSELVKSESRKKAKSSNQKEKVKPEKRGRATATTGAGPTIDQSLKGPTGTTMASERGMTMTQTIQKEKSIKKKKSEKDERKRAKEVGNEEAAADNQTVTQGNDTTTTQGPSSMFPADLSKKHRLGLQKVKERAVEVPEKKKTKNNE,not soluble
11,MSLSDDRLSLQTFLTRVTAVRLKLQQVVTAPDPEAMIQVLAQTVFQGKGADLTDIQAYGNLIAASLGADWGPAANTLFVRPLDQAWQQILLPSSAGLNRAWQRAIVDEWQGAFSGRYPFAATSSDASLPMLGQMIRADSGRIEQFLAQQLMGLLRKEGSRWVADSRQSQGLRFNPDFLTAINQLSQLADVLYTDGGMGVSFELQGKPVRDVVQTTFVLNGEKHHYFNQRESWQRFRWPGQGDHPGISEGHHHHHH,soluble
12,MEHFLQYVWQHRLYSSLSYGADAFFLEPEVIDPGMLNRDSGPDFFNAKVKVGDLLWAGNVEIHCRASDWVRHGHHLDPAYDNVVLHVVETDDLPIRHRISGEPVPVCVMHVDERLRANADFMLRTSLLPGCKDRLHELDSLEVHDWLDTLVVERLERKAAEVDRLYLSTSMDWNATAYILLARHFGFGLNNDALERLARSLPFAAIAKHRSNLLQVEALLLGQAGLLADLEDEYAEKLASEYAFLRHKFDLQPLDPSLFRLHRARPASFVHRRLGQLAAILHRCEFLFSSFVETVSAKELAQKLSVEASSYWASHYRFGKPTPVPSRSTLAAISSDALLINVAAPLRYAWLRGQSMEDYRERTIDFLRGIKPENNKPVRAFSQICRPADAAESQALIQLYREYCERRKCFFCRWGYRLLSCCKG,not soluble
13,HMDIRPRLRIGQINLGGAEDATRELPSIARDLGLDIVLVQEQYSMVGFLAQCGAHPKAGVYIRNRVLPCAVLHHLSSTHITVVHIGGWDLYMVSAYFQYSDPIDPYLHRLGNILDRLRGARVVICADTNAHSPLWHSLPRHYVGRGQEVADRRAKMEDFIGARRLVVHNADGHLPTFSTANGESYVDVTLSTRGVRVSEWRVTNESSSDHRLIVFGVGGGTTGERDEDEEARSDLRPGEP,soluble
14,MAHHHHHHMCAWNSAIHAYPTAIAPMLVRRPCHAAMNAYTAVASCATALRLSRSHLHAHMLLLLVLTRQRCNLFTLRSDTFLKAVVQMLFSPALLSTLRSAAGVSARSAPPALRQRVAAIA,not soluble
15,MEGLFESLPEGYREKLGRPGEYPFTRGIYPRMYLERLWTMRQYAGFSTAEESNARYRYLLSQGQTGLSVAFDLPTQLGLDPDHPMSVGEVGRVGVSIATLEDMQKLFDGIPLDQVSTSMTINAPAMMLLALYLLVAEAQGVPWDKVSGTVQNDILKEYFARGTYIYPPGPSMRLVTDIFEFCAAHVPRWNTISISGYHIREAGSTAAQEIAFTLADAKAYVRAALERGLDVDRFAPRLSFFFAAHGDIFEEAAKFRAARRLWARIMREEFGAKDPKSWMLRFHTQTGGSTLTAQEPLNNVVRTAYQALAAVLGGTQSLHTNAYDEALGLPTEKSALLALRTQQILAYESGVTRAIDPLGGSFYVEHLTDKLEREAEQILREIDALGGAVAAVEAGYFQRALEESAWQFQKEVEEGKRVIVGVNRFFDPNSPLNEPVPVQRIDPELHERRKRELAAFKANRDGESVRVGLERLREAARGEENLFPYVLEAFRRRATLGEVCGVLREEWGEYQPPR,soluble
